Test results taken from patent US20100075297A1, “PHOTOSENSITIVE POLYPEPTIDE AND METHODS OF THEIR PRODUCTION AND USE” (priority 2006, published 2010).
Entries after “also recorded” stand apart in the source; their conditions may differ. Each block holds one molecule with its values, some of them ahead of it. *1 amine or outer side, *2 acyl side, *3 side chain or, on linkers, in order; H or OH if unused. Where a SMILES comes first, the peptide text is derived from it. [ ]: non-standard residue; d: D form. The star is where a group is joined. X2 = COc1cc(CN([C@@H](Cc2ccc(OP(=O)(O)O)cc2)C(=O)[*:2])[*:1])c([N+](=O)[O-])cc1OC; Gly(N-Dmnb) = COc1cc(CNCC(=O)O)c([N+](=O)[O-])cc1OC; X1 = CN(C)c1ccc(-c2cnc(-c3ccc(S(=O)(=O)*)cc3)o2)cc1; pY = N[C@@H](Cc1ccc(OP(=O)(O)O)cc1)C(=O)O; coumarin = not defined here; Dab = NCC[C@H](N)C(=O)O

Legend:
[1] = biological target: T1, cAMP-dependent protein kinase (PKA) catalytic subunit (Homo sapiens, UniProt P17612); experiment: PKA [γ-33P]ATP radioactive phosphorylation assay; type: biochemical
T1 construct: made in house
Description: PKA assays were performed in triplicate. 20 μL of a 30 μM solution of 12, which had been photolyzed for different time periods (5, 10, 15, 20, 25, 30 min), was added to each well of 96 multi-well assay plate containing 20 μL assay buffer [100 mM MOPS, 150 mM KCl, 12.5 mM MgCl2 and 150 μM cold ATP supplemented with 70-163 μCi/well [γ^−33P]ATP for radioactive detection]. 10 μL enzyme diluted buffer containing 100 mM MOPS (pH 7.1), 0.125 mg/mL bovine serum albumin, and 8 nM PKA catalytic subunit were added to initiate the reaction. Total reaction volume was 50 μL. After a 12-min incubation time at 30° C., 100 μL of 6% phosphoric acid was added to each well to stop the reaction (total volume: 150 μL). Following an additional 5 min incubation period at ambient temperature, 75 μL from each reaction well was transferred into each well of a Unifilter (P81 cellulose phosphate paper) assay plate. Each well was washed four times with 0.1% phosphoric acid in water. Scintillation solution was added to each well and ^33P-incorporation measured by scintillation counting with a MicroBeta™ TriLux & MicroBeta JET (Perkin Elmer). The formation of the photouncaged peptide was confirmed by ESI mass spectrometry.
Assays were performed as described above, except that the enzymatic reaction was stopped at different time points (2, 4, 6, 8, 10, 12, 14 min) by adding 6% phosphoric acid.

[2] = system: H2N-Leu-Arg-Arg-Ala-Ser-Leu-Gly-NH2 (11)
[3] = system: H2N-Leu-Arg-Arg-Ala-N(DMNB)Ser-Leu-Gly-NH2 (12)
GST-Lck-SH2 [4] = biological target: GST-Lck-SH2 (UniProt P06239); experiment: fluorescence of dapoxyl peptide A with Lck SH2 domain
GST-Lck-SH2 [5] = biological target: GST-Lck-SH2 (UniProt P06239); experiment: fluorescence, 3 µM peptide A with 5 µM GST-Lck-SH2 and 32 µM unphotolysed peptide 4, t=0 min
α-chymotrypsin = biological target: T2, α-chymotrypsin (Bos taurus, UniProt P00766); experiment: Chymotrypsin continuous fluorescence substrate assay; type: biochemical
T2 construct: purchased Fisher or Aldrich (general materials statement only)
Description: The peptide 9 stock solution contained 5% DMSO and the assay solution contained less than 1% DMSO. The reaction was monitored on a Photon Technology QM-1 spectrofluorimeter at 30° C. using a λex=380 nm and a λem=460 nm.
Assays were conducted using 25 μM light exposed caged peptide 10 in 50 mM Tris buffer (pH 8.0), and 100 mM NaCl, 5 mM CaCl2, and 0.01% Tween-20 to which α-chymotrypsin was added to initiate the reaction. The fluorescence of the solution was monitored on a Photon Technology QM-1 spectrofluorimeter at 30° C. at λex=380 nm and λem=460 nm. Caged peptide 10 was irradiated using an Oriel Mercury Arc Lamp (Model 69907) equipped with a 360 nm colored glass filter (300-400 nm band pass) and an IR filter for various time periods (0, 5, 10, 15, and 20 min).

Lck SH2 domain [6] = biological target: T3, Lck SH2 domain (Homo sapiens, UniProt P06239); experiment: Competition assay with dapoxyl-labeled sensor peptide A for Kd at the Lck SH2 domain; type: binding
T3 construct: made in house
Description: By contrast, the difference in affinity between 5 (43±10 μM) and 6 is somewhat more modest. The caged derivative 4 is converted to the high affinity form 6 upon photolysis. Longer photolysis times generate larger yields of the active peptide 6 (see “Experimental procedures” section below). The latter provides a straightforward means to deliver desired quantities of the active species.
The competition assay schematically illustrated in FIG. 7 was employed to determine Kds for peptides 4, 5, and 6. Experiments were conducted using 3 μM peptide A, 20 μM DTT, 5 μM GST-Lck-SH2 (in 10% glycerol), and 33.3 mM of Tris buffer (pH 7.5) in a total assay volume of 150 μL. The fluorescence of the solution was monitored on a Photon Technology QM-1 spectrofluorimeter at 30° C. at λex=395 nm and λem=535 nm. The fluorescence of the peptide A solution was measured in the presence of variable concentrations of peptides 4, 5, or 6. Control assays in the absence of GST-Lck-SH2 were also performed at the same concentrations. The following Kdx values were obtained: peptide 4 (127±6 μM), peptide 5 (43±10 μM), and peptide 6 (2.6±0.2).
and [St]=total [A], Fx=fluorescence at a given concentration of peptide X (i.e. 4, 5, or 6), Fmax=fluorescence in the absence of peptide X, F0=fluorescence in the absence of Lck-SH2 domain, Kd=binding constant of A/Lck-SH2 domain, [Pt]=total [Lck-SH2], [P]=uncomplexed [Lck-SH2], [Xt]=total [4, 5, or 6], [PX]=[4, 5, or 6/Lck-SH2 complex], [SP]=[A/Lck-SH2 complex], Kdx=dissociation constant of peptide 4, 5, or 6/Lck-SH2 domain complex.

[7] = system: Ac-Gly-Gly-Gly-N(DMNB)Phe-coumarin (10)
[8] = system: Ac-Gly-Gly-Gly-Phe-coumarin (9)
Lck SH2 domain [9] = biological target: T3, Lck SH2 domain; experiment: Photolysis of caged peptide 4, read out by displacement of sensor A from the Lck SH2 domain; type: binding
Description: Experiments were conducted using 3 μM peptide A, 20 μM DTT, 5 μM GST-Lck-SH2 (in 10% glycerol), peptide 4 (32 μM) in 33.3 mM Tris buffer (pH 7.5) and a total assay volume 150 μL. The fluorescence of the solution was monitored on a Photon Technology QM-1 spectrofluorimeter at 30° C. at λex=395 nm and λem=535 nm. Caged peptide (4) was irradiated using an Oriel Mercury Arc Lamp (Model 69907) equipped with a 360 nm colored glass filter (300-400 nm band pass) and an IR filter for various time periods (0-30 min).
An aliquot from each irradiation time period was added to the assay solution. A decrease in fluorescence intensity is indicative of displacement of the SH2 domain sensor A from the SH2 domain by uncaged peptide (6) (see FIGS. 7 and 8). An analogous set of experiments was performed with peptide 5. The formation of uncaged peptide 6 from caged peptides 4 and 5 was confirmed by analytical HPLC (comparison with the retention time of peptide 6 prepared by solid phase peptide synthesis) and by mass spectrometry.

[10] = 10 nM α-chymotrypsin, Tris pH 8.0, 30° C.

T3 sequence (P06239 127-224 limits assumed): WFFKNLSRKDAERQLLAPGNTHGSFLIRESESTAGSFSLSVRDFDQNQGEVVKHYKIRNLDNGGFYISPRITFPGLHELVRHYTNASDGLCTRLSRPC
Chain of GST-Lck-SH2 (P06239 127-224 limits assumed): as above

- activity as PKA substrate after photolysis ([1]; photolysis 5-30 min): generates the active substrate 11
Molecule: H2N-Leu-Arg-Arg-Ala-N(DMNB)Ser-Leu-Gly-NH2 [peptide 12]
- activity as PKA substrate (phosphorylation) ([1]; in the absence of photolysis): fails to serve as a substrate; also recorded: not phosphorylated

Molecule: PKA catalytic subunit
- PKA-catalyzed phosphorylation, [γ-33P]ATP assay [2]: photolysis of 12 generates the active substrate 11 (as demonstrated by mass spectrometry) that, upon addition of PKA, furnishes the phosphorylated product
- PKA-catalyzed phosphorylation, [γ-33P]ATP assay [3]: In the absence of photolysis, peptide 12 fails to serve as a substrate

- fold increase in fluorescence upon binding (GST-Lck-SH2 [4]): 10 fold
- fold enhancement in fluorescence intensity relative to A in the absence of Lck-SH2 domain (GST-Lck-SH2 [5]): 4 fold
Molecule: Ac-pTyr-Gly-Glu-Ile-Dab(Dapoxyl)-Ala-NH2 (A) (peptide)

- Km (α-chymotrypsin; [10]): 6.3 ± 1.3 µM
- Vmax (α-chymotrypsin; [10]): 7.2 µmol/min/mg
- enhancement in fluorescence upon complete hydrolysis (α-chymotrypsin; λex=380 nm, λem=460 nm): ~6 fold
Molecule: Ac-Gly-Gly-Gly-Phe-coumarin (Ac-GGGF-coumarin; reading uncertain; also: printed as Ac-Gly-Gly-Gly-Phe-coumarin) [peptide 9]

Molecule: CC[C@H](C)[C@H](NC(=O)[C@H](CCC(=O)O)NC(=O)CNC(=O)[C@H](Cc1ccc(OP(=O)(O)O)cc1)NC(C)=O)C(=O)N[C@@H](CCNC(C)=O)C(=O)N[C@@H](C)C(N)=O [peptide 6, Ac-pTyr-Gly-Glu-Ile-Dab(Ac)-Ala-NH2] (Ac-[pY]GEI[Dab](Ac)A-NH2)
- Kd (Lck SH2 domain [6]): 2.6 ± 0.2 µM

Molecule: α-chymotrypsin
- hydrolysis by chymotrypsin, continuous fluorescence assay [7]: the caged derivative 10 is essentially inactive as a chymotrypsin substrate
- Km [8]: Km=6.3±1.3 µM
- Vmax [8]: Vmax=7.2µmol/min-mg

Molecule: CC[C@H](C)[C@H](NC(=O)[C@H](CCC(=O)O)NC(=O)CN(Cc1cc(OC)c(OC)cc1[N+](=O)[O-])C(=O)[C@H](Cc1ccc(OP(=O)(O)O)cc1)NC(C)=O)C(=O)N[C@@H](CCNC(C)=O)C(=O)N[C@@H](C)C(N)=O [peptide 4, Ac-pTyr-N(DMNB)Gly-Glu-Ile-Dab(Ac)-Ala-NH2] (Ac-[pY][Gly(N-Dmnb)]EI[Dab](Ac)A-NH2)
- effect of photolysis of the caged peptide in the competition assay (Lck SH2 domain [9]; irradiation 0-30 min, 300-400 nm band pass, 32 μM peptide 4): complete displacement of A from the Lck SH2 domain
- Kd (Lck SH2 domain [6]): 127 ± 6 µM

Molecule: CC[C@H](C)[C@H](NC(=O)[C@H](CCC(=O)O)NC(=O)CNC(=O)[C@H](Cc1ccc(OP(=O)(O)O)cc1)N(Cc1cc(OC)c(OC)cc1[N+](=O)[O-])C(C)=O)C(=O)N[C@@H](CCNC(C)=O)C(=O)N[C@@H](C)C(N)=O [peptide 5, Ac-N(DMNB)pTyr-Gly-Glu-Ile-Dab(Ac)-Ala-NH2] (Ac-[X2]GEI[Dab](Ac)A-NH2)
- Kd (Lck SH2 domain [6]): 43 ± 10 µM

Molecule: Ac-Gly-Gly-Gly-N(DMNB)Phe-coumarin [peptide 10]
- activity as chymotrypsin substrate after photolysis (α-chymotrypsin; photolysis 5, 10, 15, 20 min): increasing photolysis times converts increasing amounts of caged analogue 10 to the active substrate 9
- activity as chymotrypsin substrate (α-chymotrypsin; without photolysis, 25 μM caged peptide): essentially inactive; also recorded: not hydrolyzed

Molecule: CC[C@H](C)[C@H](NC(=O)[C@H](CCC(=O)O)NC(=O)CNC(=O)[C@H](Cc1ccc(OP(=O)(O)O)cc1)NC(C)=O)C(=O)N[C@@H](CCNS(=O)(=O)c1ccc(-c2ncc(-c3ccc(N(C)C)cc3)o2)cc1)C(=O)N[C@@H](C)C(N)=O [peptide A, Ac-pTyr-Gly-Glu-Ile-Dab(Dapoxyl)-Ala-NH2] (Ac-[pY]GEI[Dab](X1)A-NH2)
- enhancement in fluorescence intensity relative to A in the absence of Lck-SH2 domain (Lck SH2 domain [9]; t=0 min photolysis, 3 μM A, 5 μM GST-Lck-SH2, 32 μM peptide 4): 4 fold
